Data published in publication PMC7449243, “An optimized integrin α6‐targeted peptide for positron emission tomography/magnetic resonance imaging of pancreatic cancer and its precancerous lesion” (Clinical and Translational Medicine, 2020).
Positions of bridges follow the written chain, without caps; N, C: chain ends. Residues, ends and D or L forms follow the SMILES beside them. *: point of attachment. NOTA = O=C(O)CN1CCN(CC(=O)O)CCN(CC(=O)*)CC1; PEG4 = NCCOCCOCCOCCOCCC(=O)O

Assays:
[1] = in vivo
Experimental: (§1) Approximately 3.7 × 10^6 Bq (100 μCi) of ^18F‐S5 was intravenously injected to a mouse for PET imaging, and 2.5 mmol/kg of gadolinium‐diethylenetriamine pentaacetic acid was injected for enhanced MR imaging. After 120 min postinjection of ^18F‐S5, PET/MR imaging was obtained by using a hybrid 3.0T PET/MR scanner (uPMR 790; UIH, Shanghai, China).

in vivo = assay type: in vivo, mouse; details: mouse, in vivo, iv
Experimental: as §1
(§2) However, in the PET/MR imaging, ^18F‐S5 produced high PET signals in the possible location of the tumor (Figure 2A). The uptake of ^18F‐S5 in tumor was quantified as 4.34 ± 1.16 %ID/g (a percentage of the injected dose per gram) (n = 5) and the tumor‐to‐muscle ratio was 4.32 ± 0.65 (Figure 2B). […] The overexpression of integrin α6 in the spontaneously developed PDAC tissue was confirmed using immunohistochemistry (Figure 2D). In addition, ^18F‐S5‐PET/MR imaging could also detect metastatic tumors in KPC, where ^18F‐S5 produced high PET signals in both of the PDAC lesions and the metastatic tumors in the abdominal cavity (Figure S4A‐D). […] Immunohistochemical analysis confirmed the formation of PanIN lesions in the pancreas and increased integrin α6 expression in lesion tissues (Figure 2H).
(§3) FIGURE 2 ^18F‐S5 PET/MR imaging in PDAC and PanIN mouse models. A, Representative cross‐sectional images of PET/MR imaging with ^18F‐S5 of KPC mouse (left) and the 3D image (right). B, Quantification of ^18F‐S5 uptake (%ID/g) by KPC mouse in tumor (4.34 ± 1.16), muscle (1.00 ± 0.17), liver (1.24 ± 0.33), and heart (2.38 ± 0.45), respectively. […] D, The development of PDAC in KPC mouse was confirmed by HE staining (left), and increased integrin α6 expression was confirmed by immunohistochemistry (right). E, Representative cross‐sectional images of PET/MR imaging of KC mouse (left) and the MIP reconstructed image (right). F, Quantification of ^18F‐S5 uptake (%ID/g) by KC mouse in PanIN tissue (2.99 ± 0.52), muscle (0.89 ± 0.13), liver (1.31 ± 0.22), and heart (2.43 ± 0.35), respectively. […] H, The development of PanIN in mice was confirmed by HE staining (left), and the overexpression of integrin α6 in the lesion was analyzed using immunohistochemistry (right) (red arrow: PanIN; black arrow: relatively normal pancreatic tissue) (mean ± SD, the difference was evaluated by Student's t‐test, *P < .05, **P < .01, ***P < .001)

PanIN = test: in vivo; assay type: in vivo, mouse; details: KC mouse, PET 120 min postinjection; mean ± SD
Experimental: as §1, §2, §3

[2] = system: spontaneously developed PDAC; test: in vivo; assay type: in vivo, mouse; details: KPC mouse, PET 120 min postinjection; n = 5, mean ± SD
Experimental: as §1, §2, §3

integrin α6 = biological target: T1, integrin α6 (Homo sapiens, UniProt P23229); test: Binding of Ala-mutated peptides by ELISA (alanine scanning of RWY); details: relative to RWY peptide; Figure 1D,E (ELISA and in vivo blocking)
T1 sequence (P23229 24-1130): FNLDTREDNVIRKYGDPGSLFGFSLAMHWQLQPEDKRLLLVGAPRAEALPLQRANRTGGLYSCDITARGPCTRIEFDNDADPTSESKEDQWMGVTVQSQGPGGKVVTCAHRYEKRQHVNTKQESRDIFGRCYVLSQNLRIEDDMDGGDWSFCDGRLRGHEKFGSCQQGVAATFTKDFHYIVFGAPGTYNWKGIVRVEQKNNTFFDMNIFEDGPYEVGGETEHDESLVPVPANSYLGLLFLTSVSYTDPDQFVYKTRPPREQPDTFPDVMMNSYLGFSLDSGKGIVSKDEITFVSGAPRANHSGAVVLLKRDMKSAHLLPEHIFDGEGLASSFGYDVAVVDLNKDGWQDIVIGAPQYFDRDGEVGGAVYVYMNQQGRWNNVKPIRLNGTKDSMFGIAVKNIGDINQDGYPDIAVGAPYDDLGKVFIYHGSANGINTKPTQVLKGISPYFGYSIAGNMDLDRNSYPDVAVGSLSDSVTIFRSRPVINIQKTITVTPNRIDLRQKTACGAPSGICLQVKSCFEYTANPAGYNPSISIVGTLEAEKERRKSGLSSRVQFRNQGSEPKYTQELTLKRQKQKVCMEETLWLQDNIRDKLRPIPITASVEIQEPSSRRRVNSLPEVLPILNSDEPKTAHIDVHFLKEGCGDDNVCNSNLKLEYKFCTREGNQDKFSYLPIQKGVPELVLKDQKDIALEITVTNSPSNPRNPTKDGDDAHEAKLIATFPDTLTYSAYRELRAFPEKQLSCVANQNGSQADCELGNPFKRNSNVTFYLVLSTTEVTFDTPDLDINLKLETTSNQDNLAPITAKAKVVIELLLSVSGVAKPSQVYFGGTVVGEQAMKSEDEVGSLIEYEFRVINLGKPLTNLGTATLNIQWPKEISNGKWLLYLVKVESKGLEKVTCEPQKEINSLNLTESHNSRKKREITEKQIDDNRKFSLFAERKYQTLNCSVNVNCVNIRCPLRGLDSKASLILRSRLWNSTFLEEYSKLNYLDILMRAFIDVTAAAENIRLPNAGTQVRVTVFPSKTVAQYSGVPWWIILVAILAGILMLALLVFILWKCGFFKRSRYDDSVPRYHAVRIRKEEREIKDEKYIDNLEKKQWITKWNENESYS
Source text: We selected integrin α6 as the target of PDAC as it was overexpressed in pancreatic cancer cells ^4 , ^5 and cancerous tissue of patients with PDAC ^4 , ^6 , ^7 with an overexpression rate up to 92%. ^4 Increased integrin α6 levels were associated with stronger PDAC cell invasiveness ^5 and poorer prognosis for patients. ^6 , ^7 Furthermore, the integrin α6β4 dimer was overexpressed in PanIN even at a stage as early as PanIN 1A. ^4 Here, we confirmed that integrin α6 was overexpressed in human PDAC (Figure 1A,B) and increased integrin α6 had poorer prognosis for PDAC patients (Figure 1C). Recently, a peptide CRWYDENAC (dubbed RWY) targeting integrin α6 has been identified ^8 and employed for nanotherapeutics of nasopharyngeal carcinoma ^8 and for PET imaging of hepatocellular carcinoma by our team. ^9 Here, we used the Ala scanning mutagenesis to modify the RWY peptide. R, W, and Y were the three key amino acids within the RWY peptide, since their replacement by an alanine reduced the cellular binding ability of this peptide, both in vitro and in vivo. […]
FIGURE 1 Increased and poorer prognosis of integrin α6 in PDAC and the optimization of a peptide targeting integrin α6. […] D, The binding affinities of seven Ala‐mutated peptides were analyzed by ELISA. […]

Sw1990 tumors = test: In vivo blocking assay of Cy5‐RWY by unlabeled peptides; details: i.v. 6 nmol Cy5‐RWY together with 6 μmol unlabeled peptide; mice bearing Sw1990 tumors
Experimental: FIGURE 1 Increased and poorer prognosis of integrin α6 in PDAC and the optimization of a peptide targeting integrin α6. […] D, The binding affinities of seven Ala‐mutated peptides were analyzed by ELISA. E, The in vivo blocking assays were performed via intravenous injection of 6 nmol of Cy5‐RWY together with 6 μmol of the unlabeled RWY peptide, or its scrambled peptide or a set of its alanine‐scanning mutant peptides into mice bearing Sw1990 tumors. […] F and G, Sw1990 cells were incubated with Cy5‐RWY and Cy5‐S5 at 37°C for 30 min, and the integrin α6‐binding affinities of Cy5‐RWY and Cy5‐S5 were analyzed by flow cytometric analysis (F); the fluorescence intensity of the S5 group presented as relative (1.41 ± 0.03) fold over RWY, indicating a higher tumor cell‐binding ability of S5. H and I To further investigate the in vivo tumor‐binding ability of the S5 peptide, Cy5‐S5, Cy5‐RWY, and Cy5‐CG7C (negative control) were synthesized and used in NIRF.

C[C@@H]1NC(=O)[C@H](CC(N)=O)NC(=O)[C@H](C)NC(=O)[C@H](CC(=O)O)NC(=O)[C@H](Cc2ccc(O)cc2)NC(=O)[C@H](Cc2c[nH]c3ccccc23)NC(=O)[C@H](CCCNC(=N)N)NC(=O)[C@@H](NC(=O)CCOCCOCCOCCOCCNC(=O)CN2CCN(CC(=O)O)CCN(CC(=O)O)CC2)CSSC[C@@H](C(=O)O)NC1=O [^18F‐S5] ({NOTA-PEG4}-CRWYDANAC-OH; disulfide 1-9 (inferred); N-terminus and C-terminus assumed)
uptake in tumor tissues compared with other tissues and organs [1]: the highest among all collected tissues and organs except for the kidney | tissue uptake at 2 h (in vivo; KC (LSL-Kras^G12D/+; Pdx1-Cre), uptake in heart): 2.43 ± 0.35 %ID/g | tissue uptake at 2 h (in vivo; KC (LSL-Kras^G12D/+; Pdx1-Cre), uptake in liver): 1.31 ± 0.22 %ID/g | tissue uptake at 2 h (in vivo; KC (LSL-Kras^G12D/+; Pdx1-Cre), uptake in muscle): 0.89 ± 0.13 %ID/g | tissue uptake at 2 h (in vivo; KPC (LSL-Kras^G12D/+; Pdx1-Cre; Trp53^fl/fl), uptake in heart): 2.38 ± 0.45 %ID/g | tissue uptake at 2 h (in vivo; KPC (LSL-Kras^G12D/+; Pdx1-Cre; Trp53^fl/fl), uptake in liver): 1.24 ± 0.33 %ID/g | tissue uptake at 2 h (in vivo; KPC (LSL-Kras^G12D/+; Pdx1-Cre; Trp53^fl/fl), uptake in muscle): 1 ± 0.17 %ID/g | uptake in PanIN tissue (PanIN): 2.99 ± 0.52 %ID/g | uptake in tumor [2]: 4.34 ± 1.16 %ID/g

CRWYDANAC [S5, peptide …, alanine substitution of E in RWY]
enhanced tumor binding ability (integrin α6): approximately 1.5 fold | blocking effect on Cy5‐RWY (Sw1990 tumors): highest blocking effect
